The values below come from the RNAGym collection of RNA variant scans (doi:10.7554/elife.80360).

B1: CPEB3 Ribozyme (parent)
chain: GGGGGCCACAGCAGAAGCGUUCACGUCGCGGCCCCUGUCAGAUUCUGGUGAAUCUGCGAAUUCUGCUGU

The variants in this data set derive from B1. The data set is described as follows: self-cleavage, relative activity (ratio to wild type); higher = more cleavage; co-transcriptional.
For the variant GGGGGCCACAGCUGAAGCGUUCACGUCGCGGCCCCUGUCAGAUUCUGGCGAAUCUGCGAAUUCUGCUGU [A13U U49C], the self-cleavage worked out at 0.78.
Turning to GGGGGCCACAGCUGAAGCGUUCACGUCGCGGCCCCUGUCAGAUUCUGGUGAAUCUGCGAAUUCUUCUGU [A13U G65U], the self-cleavage is 0.419.
For GGGGGCCACAGCUGAAGCGUUCACGUCGCGGCCCCUGUCAGAUUCUGGUGAAUCUGCGAAUUCUACUGU [A13U G65A] the value was 0.513.
Next, GGGGGCCACAGCUGAAGCGUUCACGUCGCGGCCCCUGUCAGAUUCUGGUGAAUCUGCGAAUUCUCCUGU [A13U G65C]: 0.417.
For GGGGGCCACAGCUGAAGCGUUCACGUCGCGGCCCCUGUCAGAAUCUGGUGAAUCUGCGAAUUCUGCUGU [A13U U43A] the value was 0.31; for GGGGGCCACAGCUGAAGCGUUCACGUCGCGGCCCCUGUCAGACUCUGGUGAAUCUGCGAAUUCUGCUGU [A13U U43C], 0.678; for GGGGGCCACAGCAAAAGCGUUCACGUCGCGGCCACUGUCAGAUUCUGGUGAAUCUGCGAAUUCUGCUGU [G14A C34A], 0.419.
Take GGGGGCCACAGCAAAAGCGUUCACGUCGCGGCCGCUGUCAGAUUCUGGUGAAUCUGCGAAUUCUGCUGU [G14A C34G]: the self-cleavage came out at 0.23.
For GGGGGCCACAGCUGAAGCGUUCACGUCGCGGCCCCUGUCAGAUUCUGGUGAAUCUGCGAAUUCUGCUGA [A13U U69A] the value was 0.89.
For GGGGGCCACAGCUGAAGCGUUCACGUCGCGGCCCCUGUCAGAUUCUGGUGAAUCUGCGAAUUCUGCUGC [A13U U69C] the value was 1.
For GGGGGCCACAGCUGAAGCGUUCACGUCGCGGCCCCUGUCAGAUUCUGGUGAAUCUGCGAAUUCUGCUGG [A13U U69G] the value was 0.961.
Turning to GGGGGCCACAGCAAAAGCGUUCACGUCGCGGCCCCUGUCAGAUUCUGGUGAAUCUGCGACUUCUGCUGU [G14A A60C], the self-cleavage stood at 0.28.
For GGGGGCCACAGCAAAAGCGUUCACGUCGCGGCCCCUGUCAGAUUCUGGUGAAUCUGCGAGUUCUGCUGU [G14A A60G] the value was 0.358; for GGGGGCCACAGCAAAAGCGUUCACGUCGCGGCCCCUGUCAGAUUCUGGUGAAUCUGCGAUUUCUGCUGU [G14A A60U], 0.23.
Next, GGGGGCCACAGCAAAAGCGUUCACGUCGUGGCCCCUGUCAGAUUCUGGUGAAUCUGCGAAUUCUGCUGU [G14A C29U]: 0.113.
Next, GGGGGCCACAGCUGAAGCGUGCACGUCGCGGCCCCUGUCAGAUUCUGGUGAAUCUGCGAAUUCUGCUGU [A13U U21G]: 0.173; GGGGGCCACAGCUGAAGCGUCCACGUCGCGGCCCCUGUCAGAUUCUGGUGAAUCUGCGAAUUCUGCUGU [A13U U21C]: 0.691.
GGGGGCCACAGCUGAAGCGUACACGUCGCGGCCCCUGUCAGAUUCUGGUGAAUCUGCGAAUUCUGCUGU [A13U U21A]: the self-cleavage turned out to be 0.785.
For GGGGGCCACAGCAAAAGCGUUCAUGUCGCGGCCCCUGUCAGAUUCUGGUGAAUCUGCGAAUUCUGCUGU [G14A C24U], the self-cleavage is 0.2.
As for GGGGGCCACAGCAAAAGCGUUCAAGUCGCGGCCCCUGUCAGAUUCUGGUGAAUCUGCGAAUUCUGCUGU [G14A C24A], the self-cleavage worked out at 0.238.
For GGGGGCCACAGCAAAAGCGUUCACGUCGCGGCACCUGUCAGAUUCUGGUGAAUCUGCGAAUUCUGCUGU [G14A C33A] the value was 0.519.
For GGGGGCCACAGCUGAAGCGUUCACGUCGCGGCCCCUGUCAGAUUCUGGUGAAUCUGCGAAUUCCGCUGU [A13U U64C] the value was 0.853; for GGGGGCCACAGCUGAAGCGUUCACGUCGCGGCCCCUGUCAGAUUCUGGUGAAUCUGCGAAUUCAGCUGU [A13U U64A], 0.945; for GGGGGCCACAGCUGAAGCGUUCACGUCGCGGCCCCUGUCAGAUUCUGGUGAAUCUGCGAAUUCGGCUGU [A13U U64G], 0.969.
Next, GGGGGCCACAGCUGAAGCGUUCACGUCGCGGCCCCUGUCAGAUUCUGGUGAAUCUGCGAAUUCUGCUUU [A13U G68U]: 0.886; GGGGGCCACAGCUGAAGCGUUCACGUCGCGGCCCCUGUCAGAUUCUGGUGAAUCUGCGAAUUCUGCUAU [A13U G68A]: 0.903.
Take GGGGGCCACAGCUGAAGCGUUCACGUCGCGGCCCCUGUCAGAUUCUGGUGAAUCUGCGAAUUCUGCUCU [A13U G68C]: the self-cleavage amounted to 0.841.
For GGGGGCCACAGCUGAAGCGCUCACGUCGCGGCCCCUGUCAGAUUCUGGUGAAUCUGCGAAUUCUGCUGU [A13U U20C], the self-cleavage came to 0.145.
Regarding GGGGGCCACAGCUGAAGCGGUCACGUCGCGGCCCCUGUCAGAUUCUGGUGAAUCUGCGAAUUCUGCUGU [A13U U20G], the self-cleavage came to 0.185.
For GGGGGCCACAGCAAAAGCGUUCACGUUGCGGCCCCUGUCAGAUUCUGGUGAAUCUGCGAAUUCUGCUGU [G14A C27U] the value was 0.134; for GGGGGCCACAGCAAAAGCGUUCACGUAGCGGCCCCUGUCAGAUUCUGGUGAAUCUGCGAAUUCUGCUGU [G14A C27A], 0.14.
Next, GGGGGCCACAGCAAAAGCGUUCACGUCGCGGCCCCUGUCAGAUUCUGGUGUAUCUGCGAAUUCUGCUGU [G14A A51U]: 0.75; GGGGGCCACAGCAAAAGCGUUCACGUCGCGGCCCCUGUCAGAUUCUGGUGCAUCUGCGAAUUCUGCUGU [G14A A51C]: 0.486; GGGGGCCACAGCUGAAGCGUUCACGUCGCGGCCCCAGUCAGAUUCUGGUGAAUCUGCGAAUUCUGCUGU [A13U U36A]: 0.121.
Next, GGGGGCCACAGCUGAAGCGUUCACGUCGCGGCCCCGGUCAGAUUCUGGUGAAUCUGCGAAUUCUGCUGU [A13U U36G]: 0.136; GGGGGCCACAGCUGAAGCGUUCACGUCGCGGCCCCUGUCAGAUUCUGGUGAAUCUGCGAAGUCUGCUGU [A13U U61G]: 0.46; GGGGGCCACAGCUGAAGCGUUCACGUCGCGGCCCCUGUCAGAUUCUGGUGAAUCUGCGAAAUCUGCUGU [A13U U61A]: 0.456.
Consider GGGGGCCACAGCUGAAGCGUUCACGUCGCGGCCCCUGUCAGAUUCUGGUGAAUCUGCGAACUCUGCUGU [A13U U61C], for which the self-cleavage worked out at 0.32.
Take GGGGGCCACAGCAAAAGCGUUCACGUCGCGGCCCCUGUCAGCUUCUGGUGAAUCUGCGAAUUCUGCUGU [G14A A42C]: the self-cleavage came out at 0.343.
